Conditions: Homo sapiens, pH 7.4, Thermal, Phosphate 10 mM

Hemoglobin subunit alpha wild type, P69905, sequence (P69905 whole entry): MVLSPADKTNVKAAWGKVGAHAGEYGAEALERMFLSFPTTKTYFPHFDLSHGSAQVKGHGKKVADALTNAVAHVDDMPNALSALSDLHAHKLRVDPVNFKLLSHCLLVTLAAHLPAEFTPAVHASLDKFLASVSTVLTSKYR

Hemoglobin subunit alpha wild type, P69905
Tm (Absorbance): 71 °C | Tm (CD): 73 °C | Tm (DSC): 75 °C | Tm (Optical Density): 58.7 °C
